Among the data in patent US20220153796A1 are peptide exchange yield values, retold here.

One test deals with HLA-B*44 (human). The test can be described thus: UV peptide exchange ELISA. A general note: ELISA stands for enzyme-linked immunosorbent assay.
With AEMLESVIKNY, the peptide exchange yield fell in the range of 50 to 75%.

Take MEVDPIGHVYIF: the peptide exchange yield was above 75%. Take KEVDPAGHSY: the peptide exchange yield is 20 to 50%.

In the case of AEMLERVIKNY, the peptide exchange yield was above 75%.

In the next test the target is HLA-A*24 (human). The test can be described thus: UV peptide exchange ELISA.
As to RFLPSPVVI, the peptide exchange yield was above 75%. On to YYSPLRDLL, for which the peptide exchange yield is above 75%. In turn, NYAIFDEGHML registered a peptide exchange yield above 75%. Molecule QFAAPLRGIYF returned a peptide exchange yield above 75%. In turn, RWMDQRLVF showed a peptide exchange yield above 75%.

On to KYVKDFHKF, for which the peptide exchange yield was above 75%. Same read-out and setting: then KYVKVFDKF, with above 75%. Still for that read-out and setting: next, TYSKKHFRI: above 75%.

In the case of LLIKLLQTF, the peptide exchange yield was in the range of 50 to 75%. Same read-out and setting: then LYPEGLRLL, with above 75%; and IYQQIIQTY, with above 75%.

In turn, YPSIIQEF yielded a peptide exchange yield above 75%. Still for that read-out and setting: next, RYEGILYTI: above 75%; IYHSHHPTL: 50 to 75%. Still for that read-out and setting: next, IMPEKFEFW: above 75%; WYGWHFPEL: 50 to 75%. KYMKIFHKF: the peptide exchange yield is above 75%. Same read-out and setting: next, VYMIEPLEL: above 75%. Same read-out and setting: next, VYPASKMFPFI: above 75%; TWFPKTPMLF: above 75%. On to VYVGAVNRI, for which the peptide exchange yield is above 75%.

Molecule RWLPQKNAAQF yielded a peptide exchange yield of 50 to 75%.

In turn, VFQEKHHVI yielded a peptide exchange yield of 50 to 75%.

In turn, TYLSIFDQL yielded a peptide exchange yield of 50 to 75%. On the same count and under the same terms, next, RYLADLPTL: above 75%; SYIGLPLTL: 50 to 75%; VYSDLHAFYY: above 75%. On the same count and under the same terms, next, VYNDHSIYVW: above 75%; VYDQYFITL: above 75%. Turning to RYKQDVERF, the peptide exchange yield lay within 50 to 75%. Molecule AYTLLGHEFV registered a peptide exchange yield of 10 to 20%. The molecule NYIVPDKQIF had a peptide exchange yield of 50 to 75%. On the same count and under the same terms, next, NYAENILTL: 50 to 75%; VMPSDSFFF: above 75%; PYTNYTFDF: above 75%. In turn, LYQEILAQL returned a peptide exchange yield above 75%. Still for that read-out and setting: then RYPGKFYRV, with above 75%; and KFLGPAEHLTF, with above 75%.

NYIYSISVF displayed a peptide exchange yield above 75%.

In turn, IYFRDSSFL registered a peptide exchange yield above 75%. For the molecule KYSTTFFMV, the peptide exchange yield is 20 to 50%. Still for that read-out and setting: next, KYITNLEDL: above 75%; MYINEVERL: above 75%. The molecule SYMVLAPVF yielded a peptide exchange yield above 75%.

TYCQNIKEF gave a peptide exchange yield above 75%.
